From article PMC3410803

Test system: anti-MPT64 antibody (purified rabbit antibody to recombinant M. tuberculosis H37Rv MPT64) (rabbit)
Assay: ELISA
Settings: 20 mM Hepes pH 7.35, 120 mM KCl, 1 mM CaCl2, 1 mM MgCl2 ([…]

Sequence: GGGAGCTCAGAATAAACGCTCAAAAACGCTCAAGAGGCCCGGATCTTCGACATGAGGCCCGGATC [MPT64-A1]
- binding signal: 1.62 OD450
